Source: patent US20250333496A1 (Novo Nordisk, published 2025)
Where two headings read alike, the source gives them in different places.

T1: IL-6R on HEK293-STAT3-Luc reporter cells (UniProt P08887 20-468, limits assumed)
T1 sequence (looked up): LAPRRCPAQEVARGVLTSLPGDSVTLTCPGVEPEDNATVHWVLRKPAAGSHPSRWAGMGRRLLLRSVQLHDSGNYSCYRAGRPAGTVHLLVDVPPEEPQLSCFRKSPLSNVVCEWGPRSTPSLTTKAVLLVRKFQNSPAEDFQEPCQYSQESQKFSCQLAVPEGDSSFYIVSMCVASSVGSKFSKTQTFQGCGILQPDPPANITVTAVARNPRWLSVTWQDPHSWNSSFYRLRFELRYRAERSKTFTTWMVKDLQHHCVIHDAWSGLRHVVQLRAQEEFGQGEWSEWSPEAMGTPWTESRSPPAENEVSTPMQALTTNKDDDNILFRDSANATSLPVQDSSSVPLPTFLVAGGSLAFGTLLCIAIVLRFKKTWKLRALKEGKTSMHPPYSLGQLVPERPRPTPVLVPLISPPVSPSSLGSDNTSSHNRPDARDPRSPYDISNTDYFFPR

B1: Polypeptide_29 (VHH)
VHH: EVQLVESGGGLVQPGGSLKLSCTTSGRRFSEYAVGWFRQAPGKEREFVADIGEQAENTWYAESVLGRFTISRDDAKNTVYLEMDGLKPEDTAVYYCAADKYGVGGNAQGYYDSWGQGTQVTVSS
notes: VHH_1.6 with C-terminal His tag extension E1; also called [VHH_1.6]-E1
B2: Vobarilizumab anti-IL-6R domain SIA comparator (VHH)
VHH: EVQLVESGGGLVQPGGSLRLSCAASGSVFKINVMAWYRQAPGKGRELVAGIISGGSTSYADSVKGRFTISRDNAKNTLYLQMNSLRPEDTAVYYCAFITTESDYDLGRRYWGQGTLVTVSS

Assays:
[1] = target: T2, human IL-6 (mature hIL-6) (human, UniProt P05231 30-212); assay: cell-based or functional assay
T2 sequence (P05231 30-212): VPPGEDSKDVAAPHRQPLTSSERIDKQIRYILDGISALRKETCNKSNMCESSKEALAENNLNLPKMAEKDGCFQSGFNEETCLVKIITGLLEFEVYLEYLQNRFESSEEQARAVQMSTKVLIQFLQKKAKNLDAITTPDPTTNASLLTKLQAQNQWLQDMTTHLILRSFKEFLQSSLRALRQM

[2] = target: T2, human IL-6 (mature hIL-6); assay: cell-based or functional assay; remark: listed apart in the source
[3] = target: T2, human IL-6 (mature hIL-6); assay: cell-based or functional assay; remark: listed apart in the source
[4] = target: T2, human IL-6 (mature hIL-6); assay: cell-based or functional assay; remark: listed apart in the source
[5] = target: T3, recombinant human HPC4-tagged IL-6 (human, UniProt P05231 30-212); assay: SPR, HPC4-IL-6 captured on anti-HPC4 antibody, VHH injected, 25 C, 1:1 model
T3 construct: captured on an anti-HPC4 antibody in SPR; also called HPC4-human IL6
T3 sequence (P05231 other isoform, or with tags, fused parts or gaps limits assumed): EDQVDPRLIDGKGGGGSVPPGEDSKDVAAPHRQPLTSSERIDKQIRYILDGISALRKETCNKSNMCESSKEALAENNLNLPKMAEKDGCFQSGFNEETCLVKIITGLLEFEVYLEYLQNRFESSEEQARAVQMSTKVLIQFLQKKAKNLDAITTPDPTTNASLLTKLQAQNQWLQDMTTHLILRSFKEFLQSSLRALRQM
Procedure: Binding of purified anti-IL-6 VHHs to recombinant human HPC4-tagged IL-6 (SEQ ID NO: 98) was probed by Surface Plasmon Resonance (SPR).
IL-6 was captured at a flow rate of 10 μL/min for 30 seconds.
Subsequently, concentration series of VHH polypeptides according to Table 33 were injected at a flow rate of 50 μL/min for 200 seconds to allow for binding to […] followed by 600 seconds running buffer (10 mM HEPES, 150 mM NaCl, 5 mM CaCl₂, 0.05% (v/v) Surfactant P20, 1 mg/mL bovine serum albumin, pH 7.4) injection allowing dissociation from IL-6. The running buffer was also used for dilution of anti-IL-6 VHHs and IL-6. Regeneration of the chip was achieved using a regeneration buffer consisting of 50 mM EDTA in running buffer without CaCl₂, 30 seconds contact time, and a 30 μL/min flow rate applied twice to the surface. The binding data were collected at 25° C. at either a Biacore instrument (Cytiva AB, Uppsala) or a Bruker SPR32 (Bruker Daltonics). Data were analysed according to a 1:1 model using either BiaEvaluation or Biacore Insight Evaluation (Cytiva AB, Uppsala) or Bruker Analyser (Bruker Daltonics).

[6] = target: T1, IL-6R on HEK293-STAT3-Luc reporter cells; assay: cell-based or functional assay
[7] = target: T1, IL-6R on HEK293-STAT3-Luc reporter cells; assay: cell-based or functional assay; remark: listed apart in the source

Row | Binder | IC 50 (nM), reporter gene assay, 0% HSA [1] [nM] | IC50 (nM), STAT3-luc reporter gene assay [2] [nM] | Relative IC50 to Reference Polypeptide_29 [2] [fold] | IC50 (nM), STAT3-luc reporter gene assay [3] [nM] | Relative IC50 to Polypeptide_29 [3] [fold] | Relative IC50 to Reference Anti-IL6 Fab [3] [fold] | IC50 (nM) mean, STAT3-luc reporter gene assay [4] [nM] | Relative IC50 to Polypeptide_29 [4] [fold] | Kd [5] [pM] | koff [5] [s⁻¹] | kon [5] [M⁻¹ s⁻¹] | IC 50 (nM), reporter gene assay, 0% HSA [6] [nM] | IC50 (nM), STAT3-luc reporter gene assay [7] [nM] | Relative IC50 to Polypeptide_29 [7] [fold] | Relative IC50 to Reference Anti-IL6 Fab [7] [fold]
1 | B1 | 0.035 | 0.034 | 1 | 0.044 | 1 | 1.1 | 0.039 | 1 | 3.9 | 8.69e-05 | 2.23e+07 |  |  |  | 
2 | B2 |  |  |  |  |  |  |  |  |  |  |  | 0.114 | 0.114 | 2.6 | 2.9
